Experimental data: publication PMC5407770, “Pyridoxal phosphate synthases PdxS/PdxT are required for Actinobacillus pleuropneumoniae viability, stress tolerance and virulence” (PLoS ONE, 2017)

Key:
PdxS = biological target: T1, PdxS (Actinobacillus pleuropneumoniae, UniProt B3GXB6); assay: PLP formation assay, OD414; assay type: biochemical; conditions: 50 mM Tris-HCl pH 8.0, 37°C, PdxS alone, 10 mM ammonium sulfate in place of glutamine
T1 construct: full-length ORF (888 bp), pET22b(+) NdeI/XhoI, His6-tag kept, E. coli BL21(DE3); PdxS alone, without PdxT
T1 sequence (B3GXB6 whole entry): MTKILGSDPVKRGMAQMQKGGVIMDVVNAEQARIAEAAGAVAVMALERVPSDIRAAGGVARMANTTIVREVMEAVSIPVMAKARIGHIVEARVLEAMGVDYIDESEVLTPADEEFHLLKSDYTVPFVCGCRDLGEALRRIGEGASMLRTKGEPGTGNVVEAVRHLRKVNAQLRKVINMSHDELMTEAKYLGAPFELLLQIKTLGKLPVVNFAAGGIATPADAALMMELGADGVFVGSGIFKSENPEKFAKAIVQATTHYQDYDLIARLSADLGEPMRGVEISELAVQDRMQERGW

O=CC(O)COP(=O)(O)O = assay: purified protein; conditions: 50 mM Tris-HCl pH 8.0, 37°C, PdxS + PdxT mixture, co-substrates ribose 5-phosphate and glutamine, glyceraldehyde 3-phosphate 0–1.0 mM (DL form per methods)
NC(=O)CC[C@H](N)C(=O)O = assay: purified protein; conditions: 50 mM Tris-Cl pH 8.0, 37°C, PdxS + PdxT mixture, glutamine 0–15 mM

O=P(O)(O)OC[C@H]1OC(O)[C@H](O)[C@@H]1O (stereo partly drawn) [ribose 5-phosphate]
PLP formation assay, OD414 (PdxS; 1 mM DL-glyceraldehyde 3-phosphate): the individual PdxS could produce PLP in the addition of ammonium

O=CC(O)COP(=O)(O)O (racemic) [glyceraldehyde 3-phosphate]
PLP formation assay, OD414 (PdxS; 0.5 mM ribose 5-phosphate): the individual PdxS could produce PLP in the addition of ammonium

PLP synthase PdxS and PdxT (PLP synthesis activity) (Actinobacillus pleuropneumoniae serovar 7 str. AP76)
Km (O=CC(O)COP(=O)(O)O): 175.7 ± 23.0 µM | kcat (O=CC(O)COP(=O)(O)O): 0.023 ± 0.0011 min⁻¹

PdxS and PdxT (PLP synthase; glutaminase activity of PdxT with PdxS) (Actinobacillus pleuropneumoniae serovar 7 str. AP76)
Km (NC(=O)CC[C@H](N)C(=O)O): 1.72 ± 0.14 mM | kcat (NC(=O)CC[C@H](N)C(=O)O): 6.12 ± 0.14 min⁻¹
